Results as given in patent US20230226096A1 (Orna Therapeutics, Inc., priority 2020, published 2023).

B1: Equine rhinitis B virus 1 (nucleic acid)
DNA: CGACAGGCACAGGTCGCTCCGAGTTCTAGTAGTGTGGGAACTTGTTACTACTGATGAAACGAGGTAGTGACACTCAGTACCTGCGAACGAGGTCGGGGCCCTCCCTTCTTCCTTCACCCAACTTTCACTTTTCGTTCCACTTTAGCAGGGGTCTTCTTTCTATCCCCCTGGCGGCATTGGAACTAGCCGTCGCGTCTTAACGCGCAGCCCTGAAGGCCCCACACCTTGTGGATCTTGCCGTGGGTATGTTTCTGGCATGTGTTTCTCAAGCCTGCAACCGAAGCCGAACAGCCACATGAACAGTTTGAGCGTGGTAGCGCTGTGTGAGTTGGCGGTGGATCCCCCTCGTGGTAACACGAGCCCCCGTGGCCAAAAGCCCAGTGTTTACAGCACCTCTCACATCCAGGACGACCCCATCCTGGCGCTCACTCTTAGTAGTATGGCTTAGTACGCATTAGGTGGTAAGCCGAGCTCTCCCTCGGCCTTGTTCTGAATGCACACATGTCTAGGGGCTAAGGATGTCCTACAGGTACCCGCACGTAACCTTCAGAGAGTGCGGATCTGAGTAGGAGACCGTGGTGCACTGCTTTACAGATGCAGCCCGGTTTAAAAAGCGTCTATGCCCCTACAGGGTAGCGGTGGGCCGCGCCCTTTCCTTTTAAAACTACTTGTTCT
B2: Poecivirus BCCH-449 (nucleic acid, listed as Poecivirus sp.)
DNA: ACTACACAATCGCAACACGCGCAAGTTTGTAGTTTGATTGGCGTGCAAATGTCAAATCAAGCATATAACACAATTTGGTGGCTGTTGGTGTTTGTTATAGGAATTTTGGTTGTGTTGAAATTGTGGATGTGTAGGAAATATGCACAATTACGTCAGCGTCAGGAGTTTTATAACCTGGCGCAACACCAAAATGGTCTTCGCGCTTTAACATCACCAGCGAGGTGTAAACAAATTGAAGTTGAATTAGATCGTGTATAGGCCAGGGAACCATCCCTCCCAACGCCACATCTTGTGGGGAAGTTGGGATAATGGTGGGTCTATATGAATTGGTCTGTAGACCCACAGTGAAGAGTGAATAGTATGCTTGCGGTTCCATTTGTTAATGGTCTAGCATGGGTGGGGGCGGCAACCCCGTGAGGGGTTCCCCACTGGCCAAAAGCCCAGGGGTTAGTCATTTCAACCAAGGAAGCTGGTAACCTGGTGACCTGAACTTGAGTGGTGAGACCCCCTTGCTAGAGTGTGTAAACCGATTGTAAGCATTTTGTTTGCTTAGTATCTGTGGTATAAGCAGTCAATTTTGTATAGGCTCAAGGCTGTGGTAGTTAGTAGATGCCCGGAAGGTTATTACTGATCCGGGGACCGTGACTATACATTAGGTAAACCGGTTTAAAAACC
B3: Falcon picornavirus (nucleic acid)
DNA: CGCTTGGAATAAGTTGAGAGGAATTATGCATGCTAGTTGTGTTTGTTTACAACTAATTGTTCTAATCCAAGTGAAGCTCTTCGCTTGGGGCGGCACGACACTTGCCGTAATTCTTCTACCGTCCCTCCACACCTTGTGGATGAAGGGCCGGATGTGTGGCCTCTGGCTAACCCCTCTCTCTGGGGTGATGCTACTGGATGTTTTACTCCTAGACCAAATCACATGAACTCCTCTTGATCCACTTCGGTGGGGCTATGAGCCTGCGGATTAATAGCTGGCGACAGCTACCCCAGGGGCCAAAAGCCACGGTGTTAGCAGCACCCTCATAGTCTGATGCCCAAGGGCTGATGTTGGGAGCTAGTAGTGTGTGTCTGGCCTATGTTTAGGACTTCTGGCCAAGCGCAGAGGAGTGGGGCTGAAGGATGCCCAGAAGGTACCCGTAGGTAACCTTAAGAGACTATGGATCTGATCTGGGGCCCCCTCACGTGGCTTTACCACGTGTTGGGGGTTAAAAAACGTCTAGGCCCCACCAGCCCACGGGAGTGGGCTTTCCCTTAAAAAGCCCAACAATATTTATGGTGACAATTCACTGTTTCTTCTTTGCAATTTTTGTATTCTTGGACTCCTTATTTTTTGTTTGCTTGATTTTAGTGGACATTCAGATTCAAATACAAA
B4: Equine rhinitis A virus (nucleic acid)
DNA: AAGGGTTACTGCTCGTAATGAGAGCACATGACATTTTGCCAAGATTTCCTGGCAATTGTCACGGGAGAGAGGAGCCCGTTCTCGGGCACTTTTCTCTCAAACAATGTTGGCGCGCCTCGGCGCGCCCCCCCTTTTTCAGCCCCCTGTCATTGACTGGTCGAAGGCGCTCGCAATAAGACTGGTCGTTGCTTGGCTTTTCTATTGTTTCAGGCTTTAGCGCGCCCTTGCGCGGCGGGCCGTCAAGCCCGTGTGCTGTACAGCACCAGGTAACCGGACAGCGGCTTGCTGGATTTTCCCGGTGCCATTGCTCTGGATGGTGTCACCAAGCTGGCAGATGCGGAGTGAACCTTACGAAGCGACACACCTGTGGTAGCGCTGCCCAGAAGGGAGCGGAGCTCCCCCGCCGCGAGGCGGTCCTCTCTGGCCAAAAGCCCAGCGTTAATAGCGCCTTCTGGGATGCAGGAACCCCACCTGCCAGGTGTGAAGTGGACTAAGTGGATCTCCAATTTGGCCTGTTCTGAACTACACCATCTACTGCTGTGAAGAATGTCCTGAAGGCAAGCTGGTTACAGCCCTGATCAGGAGCCCCGCTCGTGACTCTCGATCGACGCGGGGTCAAAAACTGTCTAAGCAGCAGCAGAAACGCGGGAGCGTTTCTTTTTCCTCATTTGTTTC
modifications: Equine rhinitis A virus
B5: Chicken gallivirus 1 (nucleic acid, listed as Gallivirus sp.)
DNA: GGTTAACTTGTTTAACCAAGGCTTCCGTGCAGGGCTTGCACGTTAGGAGTTCATGTTGATTCATGCTCCAATGCCCAAAACTTTGTGTGTTTGTTTATGTCTTTCCCAAAGTTTCCCCCAAGGTTTCGGTACTCAAACCTTAATTCCTAGTCCCATCTTTTGGGCCTTAGTATCTAGGAAATGTACCCGTGCCTTGACGAACGTAAGAAAGCTGTCTTTTATTGAACGGTTCTAATGAACTAAGTATAACTGGCTCGCGCCACCTGGTGTGTGCCGTTGGAATTCCCCCATGGTAACATGGTCCAACGGGCCCGAAAGGCTAGTGGGCAATCGGTCCTCCAAGGAAGGGGTTCCCACCCCGACCTGAACAGGATTTGATGAAGCTCACCTCCCAGGCTCCTAACCCCAAGGAAGTTTACTTATAGTAATTAGAATTTAGTATGTAATTGCTGGCAATCTTGCTAGTAGTCAGGAACGTTATGACCAAATGAGTAGACCCCCAGAAGGTACCCCATTATATGGGATCTGATCTGGGCCTCATACTGTGTGTCTCCCCACATATGAGGTTAAAACCATGAAAGTTTGGTCCAAAATATTCTTTTCCTTTTATCTTTTCTTTAGTGGTGACGCCATTATATCAGCAGTTTGCTG
B6: Equine arteritis virus (nucleic acid)
DNA: GCTCGAAGTGTGTATGGTGCCATATACGGCTCACCACCATATACACTGCAAGAATTACTATTCTTGTGGGCCCCTCTCGGTAAATCCTAGAGGGCTTTCCTCTCGTTATTGCGAGATTCGTCGTTAGATAACGGCAAGTTCCCTTTCTTACTATCCTATTTTCATCTTGTGGCTTGACGGGTCACTGCCATCGTCGTCGATCTCTATCAACTACCCTTGCGACT
B7: Chicken orivirus 1 (nucleic acid, listed as Orivirus sp.)
DNA: AAACCCTCACGAGTGCTTGTGGTAGGTCCCAGGCCAATATTCTTCGTAAGGCTTGGTTCCAATTTTCCACCACTCGTGTTTGGGTTCTGGCCTATGGTACCCAGAGGGGCGGTTTGGGGGAATTAACTCCCCCTCCCCTGTGGTCCTATACCACCCCACACCTCTGTGGGCTTTCTTTACTATCTTCTTGTTTTCCGACTTTTAAACACTAGGCAGGCGCGCCTAGTCATACACCGCCCGGCTGGTCTTTCCAGCTCTTGTGGGCGGTGCGCGCTGGTCCATCGTGCCCAGCGACATAGCACCTTGTGGACACCTCCGAACGCCCTCCCCTGTATGGGGTGGTGCCCAGGGGTTTCAGTGTGGTGACACACTCCCTGGGGCCCGAAAGGCTAGTGTGCAACAGGTGAGGTACAGCCAGCTGCCCCCGTGGCTGGAGGGACCAAGCTTGTGAAGCACACCTCACCTTCTTGGGGGTGGGCTAGTAAGTGGTGAAAGCATAGTGTCCGTGTCGCTGGCCAACACTTTGGGTCAAGTCCAGCCACTCAGTGAGTAGATGCCCAGGAGGTACCCCTAGTGGATCTGACTTGGGGCCTGTTACTTAATGCAGGTTAAAAACTATGAAAGCTGAGTAGTGTAGCCCGGCTGGTGGCTTCTCTTCCTTATTCATTCTATTTT
B8: Carp picornavirus 1 (nucleic acid)
DNA: AGCTACAGGAAAGAGAGAGATAATCACAGCACATAAATACAACTACAGAAGAGAGCCTTTCCCTGAGCACTATTTACAGCAAACCACGCTGGGAAAAGTGGTAGCATGACCCACTTACGGGTTACTTAGTATAGGATTTTAATATCTTCGATTCTTTATTTTCTTTTCTTAACTAAGTTCGCCCGGACTTTATCCGTGTTTTATTTTAGTTTAAGCAAAATTGAGTAACTAAGTTTTTAACCTGCCAAATGGTGAGAAGTAACTCTGTGAAAATACCATTTGTGCATGAAATTGTCTTGAAAACTCTTAGGCTTTTGGGGGGTCCCACTGCTGTTTGGAGGACTATTGACAGACTCTATTGTAGTTGAGTAGTGACTAATGATAACGATTTGCGTATTACGCAATGGGCTGTACCCGTTAGATTTAGTATGCCGGGGGGAGGGGTCCCACTGGATTGCACTATGTAACCTGACAGGGCGTCTGCCGACGCACTACAATGAGGATAAGATCGGCTGTTTTTATTT
B9: Chicken calicivirus (nucleic acid)
DNA: GGTGCATCATCACTGAACACCCTCGGGCAGAGATGCAAGGGTGGAAGTCACTCCTGCCCCCTGGCAACATGCAGGTGCCCGATCCCAAGCTTAGTTCTGACTTCCTCTCCTGGGTGGTGCAACACTCCAAGGTTGATGAACAAACCTGGAGGGACCTCTGGGCAACCTGGTCTCTCGAGGATCTCCGGCGCATCTCCACAGACTACCTCATGCTCCCGGAACCTGAGAAGAACACTGATGCCTATGATGGCTGGCTGATGGTCGGCGAGATGTTGACCTTTGCCGGTCTCATTGGCTGGGAGG

What follows are molecules tested on HEK293 cells. Settings: luminescence from secreted Gluc in supernatant 24 hours after transfection of HEK293 cells; circular RNA encoding Gluc with the named IRES (UTR truncated to 675 nt).
Type: cell-based, human

First: B1
Second: B2
The Expression of the first is lower: 1.01E+05 for the first, 3.43E+05 for the second.

Compared with B3, B4 is lower in Expression: 3.08E+06 for the first, 3.73E+05 for the second.

Going from B5 to B6, the Expression falls from 1.51E+07 to 1.89E+05.

First: B7
Second: B8
The Expression of the first is higher: 3.16E+05 for the first, 1.13E+05 for the second.

B9 was tested, and the Expression was 1.28E+05.
